# Test results taken from PMC4844972, “A dynamic interaction process between KaiA and KaiC is critical to the cyanobacterial circadian oscillator” (Scientific Reports, 2016).
# Substitutions are numbered along the chain they refer to.
# B1: wild-type KaiC of Synechococcus elongatus PCC 7942 (enzyme)
# chain: MTSAEMTSPNNNSEHQAIAKMRTMIEGFDDISHGGLPIGRSTLVSGTSGTGKTLFSIQFLYNGIIEFDEPGVFVTFEETPQDIIKNARSFGWDLAKLVDEGKLFILDASPDPEGQEVVGGFDLSALIERINYAIQKYRARRVSIDSVTSVFQQYDASSVVRRELFRLVARLKQIGATTVMTTERIEEYGPIARYGVEEFVSDNVVILRNVLEGERRRRTLEILKLRGTSHMKGEYPFTITDHGINIFPLGAMRLTQRSSNVRVSSGVVRLDEMCGGGFFKDSIILATGATGTGKTLLVSRFVENACANKERAILFAYEESRAQLLRNAYSWGMDFEEMERQNLLKIVCAYPESAGLEDHLQIIKSEINDFKPARIAIDSLSALARGVSNNAFRQFVIGVTGYAKQEEITGLFTNTSDQFMGAHSITDSHISTITDTIILLQYVEIRGEMSRAINVFKMRGSWHDKAIREFMISDKGPDIKDSFRNFERIISGSPTRITVDEKSELSRIVRGVQEKGPES
# notes: KaiC, Synechococcus elongatus PCC 7942; expressed from pGEX-6P-1; The sample is a mixture of phosphorylated and de-phosphorylated KaiC (sites T432 and S431); also called the wild-type KaiC
# B2: KaiC-2-1 (enzyme, Synechococcus elongatus PCC 7942)
# chain: B1 chain with I497V, V499T, S503T
# notes: KaiC, Synechococcus elongatus PCC 7942, with the mutations of Cluster II; The oligomer state is said to be the same as that of the wild type; also called KaiC mutant of Cluster II
# B3: KaiC-3-1 (enzyme, Synechococcus elongatus PCC 7942)
# chain: B1 chain with S493V, T495H
# notes: KaiC, Synechococcus elongatus PCC 7942, with the mutations of Cluster III; The oligomer state is said to be the same as that of the wild type; also called KaiC mutant of Cluster III
# B4: KaiC-1-1 (enzyme, Synechococcus elongatus PCC 7942)
# chain: B1 chain with K502R
# notes: KaiC, Synechococcus elongatus PCC 7942, with the mutation of Cluster I; The oligomer state is said to be the same as that of the wild type; also called KaiC mutant of Cluster I
# B5: wild-type KaiA of Synechococcus elongatus PCC 7942 (natural protein)
# chain: MLSQIAICIWVESTAILQDCQRALSADRYQLQVCESGEMLLEYAQTHRDQIDCLILVAANPSFRAVVQQLCFEGVVVPAIVVGDRDSEDPDEPAKEQLYHSAELHLGIHQLEQLPYQVDAALAEFLRLAPVETMADHIMLMGANHDPELSSQQRDLAQRLQERLGYLGVYYKRDPDRFLRNLPAYESQKLHQAMQTSYREIVLSYFSPNSNLNQSIDNFVNMAFFADVPVTKVVEIHMELMDEFAKKLRVEGRSEDILLDYRLTLIDVIAHLCEMYRRSIPRET
# notes: KaiA, Synechococcus elongatus PCC 7942; expressed from pGEX-6P-1; Plasmid provided by Dr. Carl Johnson; also called the wild-type KaiA
# B6: KaiA-3-1 (natural protein, Synechococcus elongatus PCC 7942)
# chain: B5 chain with R253H, S254K, I257F
# notes: KaiA, Synechococcus elongatus PCC 7942, with the mutations of Cluster III; The oligomer state is said to be the same as that of the wild type; also called KaiA mutant of Cluster III
# B7: KaiA-2-1 (natural protein, Synechococcus elongatus PCC 7942)
# chain: B5 chain with L259Q
# notes: KaiA, Synechococcus elongatus PCC 7942, with the mutation of Cluster II; The oligomer state is said to be the same as that of the wild type; also called KaiA mutant of Cluster II
# B8: KaiA-1-1 (natural protein, Synechococcus elongatus PCC 7942)
# chain: B5 chain with E239N, A245W
# notes: KaiA, Synechococcus elongatus PCC 7942, with the mutations of Cluster I; R249 belongs to the cluster but was not mutated; The oligomer state is said to be the same as that of the wild type; also called KaiA mutant of Cluster I
# Molecular target: the molecule itself
# Assay: native gel or EMSA; 8% native gel of the purified proteins, to analyse their oligomerization statuses
# Settings: not given
row,Molecule,binding result
1,B1,binds
2,B2,binds
3,B3,binds
4,B4,binds
5,B5,binds
6,B6,binds
7,B7,binds
8,B8,binds

# Molecular target: KaiC (Synechococcus elongatus) (UniProt Q79PF4)
# Assay: not given
# Settings: cited from earlier work
row,Molecule,Kd
1,KaiA (from UniProt Q79PF6),2.5 µM
